# Measured values from article PMC6331917.
# Test system: NS5BΔ21 (viral RNA-dependent RNA polymerase) (Hepatitis C virus)
# Test: competition (filter binding)
# Conditions: 5 mM HEPES pH 7.9, 2 mM MgCl2, 25 mM KCl, 37 °C, 30 min; nitrocellulose dot-blot filter binding. Aptamer:CRE Kd values (Table 2) are RNA-RNA and not listed.
substance,measurement,value
HCV-CRE194,binding signal,75.4 % complex
